Assay: Determination of structural forms by Superdex G-75 column elution
Type: physicochemical
Details: for Peak profile / Retention Time: Superdex G-75 column (HR 10/30), phosphate buffered saline pH 7.4, flow rate 0.4 ml/min, sample 1.2 mg/ml; for Structural form (monomeric or polymeric): concluded from retention time and peak profile versus positive control [B28Lys, B29Pro] human insulin
Description: […] A preparation of each analogue is passed through Superdex G-75 column (HR 10/30). HI and [B28Lys, B29Pro] insulin (Lispro) are used as negative and positive controls respectively. Phosphate buffered saline pH 7.4 is used as an elution buffer and the flow rate fixed at 0.4 ml/min. The concentration of the sample preparation is 1.2 mg/ml.

Hl: human insulin, used as negative control [reference compound]
Peak profile: Unsymmetrical
Retention Time: 36.4 min

[B12Thr]Hl: insulin analogue in which the 12th amino acid of the B-chain of human insulin (Val) is substituted by Thr
Peak profile: Symmetrical
Retention Time: 39.4 min
Structural form (monomeric or polymeric): monomeric

[B16Ala]Hl: human insulin analogue with replacement of Tyr by Ala in position B16
Peak profile: Symmetrical
Retention Time: 38.3 min
Structural form (monomeric or polymeric): monomeric

[B26Ala]Hl: human insulin analogue with replacement of Tyr by Ala in position B26
Peak profile: Symmetrical
Retention Time: 38.9 min
Structural form (monomeric or polymeric): monomeric

[B28Lys, B29Pro]Hl: commercial monomeric insulin with inversion of amino acids 28 and 29 of the B chain of human insulin; positive control [reference compound]
Peak profile: Symmetrical
Retention Time: 39.4 min

From patent US6800606B1, “Monomeric analogues of human insulin” (Shanghai Institute of Biochemistry, priority 1999, dated 2004)
